Laboratory results reported in IntAct's records for PubMed 31515488.

B1: Zinc finger protein 165 (Homo sapiens), P49910 (parent)
chain: MATEPKKAAAQNSPEDEGLLIVKIEEEEFIHGQDTCLQRSELLKQELCRQLFRQFCYQDSPGPREALSRLRELCCQWLKPEIHTKEQILELLVLEQFLTILPGDLQAWVHEHYPESGEEAVTILEDLERGTDEAVLQVQAHEHGQEIFQKKVSPPGPALNVKLQPVETKAHFDSSEPQLLWDCDNESENSRSMPKLEIFEKIESQRIISGRISGYISEASGESQDICKSAGRVKRQWEKESGESQRLSSAQDEGFGKILTHKNTVRGEIISHDGCERRLNLNSNEFTHQKSCKHGTCDQSFKWNSDFINHQIIYAGEKNHQYGKSFKSPKLAKHAAVFSGDKTHQCNECGKAFRHSSKLARHQRIHTGERCYECNECGKSFAESSDLTRHRRIHTGERPFGCKECGRAFNLNSHLIRHQRIHTREKPYECSECGKTFRVSSHLIRHFRIHTGEKPYECSECGRAFSQSSNLSQHQRIHMRENLLM

Variants of: B1
Conditions: with kat7_human KAT7, O95251
Chain of kat7_human KAT7, O95251 (O95251 whole entry): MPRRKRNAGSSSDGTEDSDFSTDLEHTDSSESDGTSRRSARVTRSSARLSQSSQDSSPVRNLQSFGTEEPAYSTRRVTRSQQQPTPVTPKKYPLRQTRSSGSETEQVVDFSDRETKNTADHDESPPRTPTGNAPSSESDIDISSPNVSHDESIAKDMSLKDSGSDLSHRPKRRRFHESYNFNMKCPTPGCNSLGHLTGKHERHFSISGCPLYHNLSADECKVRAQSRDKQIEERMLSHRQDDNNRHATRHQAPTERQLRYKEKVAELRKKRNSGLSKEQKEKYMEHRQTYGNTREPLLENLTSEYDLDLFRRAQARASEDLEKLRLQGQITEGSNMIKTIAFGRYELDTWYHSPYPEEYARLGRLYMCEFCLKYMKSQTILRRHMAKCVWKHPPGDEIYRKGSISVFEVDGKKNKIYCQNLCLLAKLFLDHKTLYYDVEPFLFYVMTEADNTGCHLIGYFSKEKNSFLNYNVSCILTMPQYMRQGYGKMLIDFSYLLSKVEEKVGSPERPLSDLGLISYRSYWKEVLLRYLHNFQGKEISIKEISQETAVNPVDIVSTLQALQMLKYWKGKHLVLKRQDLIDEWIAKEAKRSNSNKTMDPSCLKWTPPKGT

Variant	effect of a mutation on the interaction
MATEPKKAAAQNSPEDEGLLIVKIEEEEFIHGQDTCLQRSELLKQELCRQLFRQFCYQDSPGPREALSCLRELCCQWLKPEIHTKEQILELLVLEQFLTILPGDLQAWVHEHYPESGEEAVTILEDLERGTDEAVLQVQAHEHGQEIFQKKVSPPGPALNVKLQPVETKAHFDSSEPQLLWDCDNESENSRSMPKLEIFEKIESQRIISGRISGYISEASGESQDICKSAGRVKRQWEKESGESQRLSSAQDEGFGKILTHKNTVRGEIISHDGCERRLNLNSNEFTHQKSCKHGTCDQSFKWNSDFINHQIIYAGEKNHQYGKSFKSPKLAKHAAVFSGDKTHQCNECGKAFRHSSKLARHQRIHTGERCYECNECGKSFAESSDLTRHRRIHTGERPFGCKECGRAFNLNSHLIRHQRIHTREKPYECSECGKTFRVSSHLIRHFRIHTGEKPYECSECGRAFSQSSNLSQHQRIHMRENLLM [R69C]	with no effect
MATEPKKAAAQNSPEDEGLLIVKIEEEEFIHGQDTCLQRSELLKQELCRQLFRQFCYQDSPGPREALSRLRELCCQWLKPEIHTKEQILELLVLEQFLTILPGDLQAWVHEHYPESGEEAVTILEDLERGTDEAVLQVQAHEHGQEIFQKKVSPPGPALNVKLQPVETKAHFDSSEPQLLWDCDNESENSRSMPKLEIFEKIESQRIISGRISGYISEASGESQDICKSAGRVKRQWEKESGESQRLSSAQDEGFGKILTHKNTVRGEIISHDGCERRLNLNSNEFTHQKSCKHGTCDQSFKWNSDFINHQIIYAGEKNHQYGKSFKSPKLAKHAAVFSGDKTHQCYECGKAFRHSSKLARHQRIHTGERCYECNECGKSFAESSDLTRHRRIHTGERPFGCKECGRAFNLNSHLIRHQRIHTREKPYECSECGKTFRVSSHLIRHFRIHTGEKPYECSECGRAFSQSSNLSQHQRIHMRENLLM [N347Y]	with no effect

Variants of: B1
Conditions: with pdli7_human PDLIM7, Q9NR12
Chain of pdli7_human PDLIM7, Q9NR12 (Q9NR12 whole entry): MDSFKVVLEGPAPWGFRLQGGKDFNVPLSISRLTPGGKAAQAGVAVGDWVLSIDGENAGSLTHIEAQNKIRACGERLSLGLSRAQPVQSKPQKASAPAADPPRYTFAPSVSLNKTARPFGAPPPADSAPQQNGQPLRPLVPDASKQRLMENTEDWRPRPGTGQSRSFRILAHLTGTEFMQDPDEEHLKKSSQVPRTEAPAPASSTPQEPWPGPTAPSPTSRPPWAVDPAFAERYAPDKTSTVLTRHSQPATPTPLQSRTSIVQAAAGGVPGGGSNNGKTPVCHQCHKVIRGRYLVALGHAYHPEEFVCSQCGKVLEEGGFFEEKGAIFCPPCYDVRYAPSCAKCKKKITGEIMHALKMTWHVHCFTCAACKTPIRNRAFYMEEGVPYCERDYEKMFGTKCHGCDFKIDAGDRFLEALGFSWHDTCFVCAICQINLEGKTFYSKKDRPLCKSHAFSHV

Variant	effect of a mutation on the interaction
MATEPKKAAAQNSPEDEGLLIVKIEEEEFIHGQDTCLQRSELLKQELCRQLFRQFCYQDSPGPREALSCLRELCCQWLKPEIHTKEQILELLVLEQFLTILPGDLQAWVHEHYPESGEEAVTILEDLERGTDEAVLQVQAHEHGQEIFQKKVSPPGPALNVKLQPVETKAHFDSSEPQLLWDCDNESENSRSMPKLEIFEKIESQRIISGRISGYISEASGESQDICKSAGRVKRQWEKESGESQRLSSAQDEGFGKILTHKNTVRGEIISHDGCERRLNLNSNEFTHQKSCKHGTCDQSFKWNSDFINHQIIYAGEKNHQYGKSFKSPKLAKHAAVFSGDKTHQCNECGKAFRHSSKLARHQRIHTGERCYECNECGKSFAESSDLTRHRRIHTGERPFGCKECGRAFNLNSHLIRHQRIHTREKPYECSECGKTFRVSSHLIRHFRIHTGEKPYECSECGRAFSQSSNLSQHQRIHMRENLLM [R69C]	with no effect
MATEPKKAAAQNSPEDEGLLIVKIEEEEFIHGQDTCLQRSELLKQELCRQLFRQFCYQDSPGPREALSRLRELCCQWLKPEIHTKEQILELLVLEQFLTILPGDLQAWVHEHYPESGEEAVTILEDLERGTDEAVLQVQAHEHGQEIFQKKVSPPGPALNVKLQPVETKAHFDSSEPQLLWDCDNESENSRSMPKLEIFEKIESQRIISGRISGYISEASGESQDICKSAGRVKRQWEKESGESQRLSSAQDEGFGKILTHKNTVRGEIISHDGCERRLNLNSNEFTHQKSCKHGTCDQSFKWNSDFINHQIIYAGEKNHQYGKSFKSPKLAKHAAVFSGDKTHQCYECGKAFRHSSKLARHQRIHTGERCYECNECGKSFAESSDLTRHRRIHTGERPFGCKECGRAFNLNSHLIRHQRIHTREKPYECSECGKTFRVSSHLIRHFRIHTGEKPYECSECGRAFSQSSNLSQHQRIHMRENLLM [N347Y]	with no effect

Variants of: B1
Conditions: with trim1_human MID2, Q9UJV3
Chain of trim1_human MID2, Q9UJV3 (Q9UJV3 whole entry): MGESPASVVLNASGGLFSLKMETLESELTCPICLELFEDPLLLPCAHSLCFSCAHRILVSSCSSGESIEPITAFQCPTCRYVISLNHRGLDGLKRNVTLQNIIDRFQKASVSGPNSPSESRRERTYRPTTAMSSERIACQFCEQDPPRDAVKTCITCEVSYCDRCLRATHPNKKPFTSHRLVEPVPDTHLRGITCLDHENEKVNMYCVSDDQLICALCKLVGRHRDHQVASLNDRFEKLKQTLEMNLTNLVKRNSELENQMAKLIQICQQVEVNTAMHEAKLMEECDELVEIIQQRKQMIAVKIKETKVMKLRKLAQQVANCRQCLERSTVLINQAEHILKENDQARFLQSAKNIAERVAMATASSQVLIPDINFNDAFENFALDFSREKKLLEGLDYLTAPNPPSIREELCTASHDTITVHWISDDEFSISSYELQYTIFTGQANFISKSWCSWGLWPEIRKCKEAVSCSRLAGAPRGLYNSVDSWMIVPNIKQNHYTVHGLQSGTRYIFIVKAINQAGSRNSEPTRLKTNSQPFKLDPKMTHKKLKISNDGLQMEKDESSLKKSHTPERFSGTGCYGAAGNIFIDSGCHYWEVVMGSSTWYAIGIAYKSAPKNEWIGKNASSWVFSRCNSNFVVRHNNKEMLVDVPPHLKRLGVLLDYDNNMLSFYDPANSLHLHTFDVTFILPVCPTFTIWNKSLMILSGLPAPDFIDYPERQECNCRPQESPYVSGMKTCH

Variant	effect of a mutation on the interaction
MATEPKKAAAQNSPEDEGLLIVKIEEEEFIHGQDTCLQRSELLKQELCRQLFRQFCYQDSPGPREALSCLRELCCQWLKPEIHTKEQILELLVLEQFLTILPGDLQAWVHEHYPESGEEAVTILEDLERGTDEAVLQVQAHEHGQEIFQKKVSPPGPALNVKLQPVETKAHFDSSEPQLLWDCDNESENSRSMPKLEIFEKIESQRIISGRISGYISEASGESQDICKSAGRVKRQWEKESGESQRLSSAQDEGFGKILTHKNTVRGEIISHDGCERRLNLNSNEFTHQKSCKHGTCDQSFKWNSDFINHQIIYAGEKNHQYGKSFKSPKLAKHAAVFSGDKTHQCNECGKAFRHSSKLARHQRIHTGERCYECNECGKSFAESSDLTRHRRIHTGERPFGCKECGRAFNLNSHLIRHQRIHTREKPYECSECGKTFRVSSHLIRHFRIHTGEKPYECSECGRAFSQSSNLSQHQRIHMRENLLM [R69C]	with no effect
MATEPKKAAAQNSPEDEGLLIVKIEEEEFIHGQDTCLQRSELLKQELCRQLFRQFCYQDSPGPREALSRLRELCCQWLKPEIHTKEQILELLVLEQFLTILPGDLQAWVHEHYPESGEEAVTILEDLERGTDEAVLQVQAHEHGQEIFQKKVSPPGPALNVKLQPVETKAHFDSSEPQLLWDCDNESENSRSMPKLEIFEKIESQRIISGRISGYISEASGESQDICKSAGRVKRQWEKESGESQRLSSAQDEGFGKILTHKNTVRGEIISHDGCERRLNLNSNEFTHQKSCKHGTCDQSFKWNSDFINHQIIYAGEKNHQYGKSFKSPKLAKHAAVFSGDKTHQCYECGKAFRHSSKLARHQRIHTGERCYECNECGKSFAESSDLTRHRRIHTGERPFGCKECGRAFNLNSHLIRHQRIHTREKPYECSECGKTFRVSSHLIRHFRIHTGEKPYECSECGRAFSQSSNLSQHQRIHMRENLLM [N347Y]	with no effect

Variants of: B1
Conditions: with zn446_human ZNF446, Q9NWS9
Chain of zn446_human ZNF446, Q9NWS9 (Q9NWS9 whole entry): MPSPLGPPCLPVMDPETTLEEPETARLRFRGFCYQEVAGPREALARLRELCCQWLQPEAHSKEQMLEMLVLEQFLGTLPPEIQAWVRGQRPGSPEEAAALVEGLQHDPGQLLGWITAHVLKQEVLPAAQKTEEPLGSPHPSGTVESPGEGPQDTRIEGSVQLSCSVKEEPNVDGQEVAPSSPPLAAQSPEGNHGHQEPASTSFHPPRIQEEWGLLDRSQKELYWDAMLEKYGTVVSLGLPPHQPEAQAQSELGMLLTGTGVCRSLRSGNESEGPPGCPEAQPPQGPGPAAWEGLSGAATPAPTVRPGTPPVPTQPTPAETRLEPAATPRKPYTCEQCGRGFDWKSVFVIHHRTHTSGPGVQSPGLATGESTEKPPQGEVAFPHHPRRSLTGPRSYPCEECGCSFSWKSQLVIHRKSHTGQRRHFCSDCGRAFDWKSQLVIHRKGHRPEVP

Variant	effect of a mutation on the interaction
MATEPKKAAAQNSPEDEGLLIVKIEEEEFIHGQDTCLQRSELLKQELCRQLFRQFCYQDSPGPREALSCLRELCCQWLKPEIHTKEQILELLVLEQFLTILPGDLQAWVHEHYPESGEEAVTILEDLERGTDEAVLQVQAHEHGQEIFQKKVSPPGPALNVKLQPVETKAHFDSSEPQLLWDCDNESENSRSMPKLEIFEKIESQRIISGRISGYISEASGESQDICKSAGRVKRQWEKESGESQRLSSAQDEGFGKILTHKNTVRGEIISHDGCERRLNLNSNEFTHQKSCKHGTCDQSFKWNSDFINHQIIYAGEKNHQYGKSFKSPKLAKHAAVFSGDKTHQCNECGKAFRHSSKLARHQRIHTGERCYECNECGKSFAESSDLTRHRRIHTGERPFGCKECGRAFNLNSHLIRHQRIHTREKPYECSECGKTFRVSSHLIRHFRIHTGEKPYECSECGRAFSQSSNLSQHQRIHMRENLLM [R69C]	with no effect
MATEPKKAAAQNSPEDEGLLIVKIEEEEFIHGQDTCLQRSELLKQELCRQLFRQFCYQDSPGPREALSRLRELCCQWLKPEIHTKEQILELLVLEQFLTILPGDLQAWVHEHYPESGEEAVTILEDLERGTDEAVLQVQAHEHGQEIFQKKVSPPGPALNVKLQPVETKAHFDSSEPQLLWDCDNESENSRSMPKLEIFEKIESQRIISGRISGYISEASGESQDICKSAGRVKRQWEKESGESQRLSSAQDEGFGKILTHKNTVRGEIISHDGCERRLNLNSNEFTHQKSCKHGTCDQSFKWNSDFINHQIIYAGEKNHQYGKSFKSPKLAKHAAVFSGDKTHQCYECGKAFRHSSKLARHQRIHTGERCYECNECGKSFAESSDLTRHRRIHTGERPFGCKECGRAFNLNSHLIRHQRIHTREKPYECSECGKTFRVSSHLIRHFRIHTGEKPYECSECGRAFSQSSNLSQHQRIHMRENLLM [N347Y]	with no effect
